Measurements taken from paper PMC11728977, “Crystallographic, kinetic, and calorimetric investigation of PKA interactions with L-type calcium channels and Rad GTPase” (The Journal of Biological Chemistry, 2024).

Biological target: catalytic subunit of PKA, isoform alpha, residues 16-351 (PKAcα_(16-351)), preparation for ITC (mouse, UniProt P05132-1 16-351)
Test: ITC; peptide or substrate (1.25 to 4.3 mM) titrated into the cell containing PKAc (149 to 204 μM); 4 °C; 50 mM Hepes (pH 7.4), 150 mM KCl, 5 mM MgCl2, 2 mM TCEP; 0.5 mM AMP-PNP in both solutions
Details: both partners purified

Row | Kd [µM] | dH [kJ/mol] | stoichiometry N | Binder
1 | 34 | 13 | 0.98 | RGFLRSASLGRRASFHL (human CaV1.2 (α1c subunit) C-terminal tail, residues 1968-1984 around the PKA site Ser1981; also called S1981 peptide; CaV1.2 S1981 peptide; source: synthetic peptide) [CaV1.2 Ser1981 peptide]
2 | 147 | 10.3 | 0.99 | RGFLRSASLGRRASAHL (human CaV1.2 residues 1968-1984 with F1982A (P+1 position); also called F1982A peptide; S1981 (F1982A); source: synthetic peptide) [CaV1.2 Ser1981 peptide F1982A]
3 | 18 | 11 | 1.06 | RGFARSASLGRRASFHL (also called L1971A peptide; S1981 (L1971A); source: synthetic peptide) [CaV1.2 Ser1981 peptide L1971A]
4 | 532 | 14 | 1.08 | RGFLRSARLGRRASFHL (also called S1975R peptide; S1981 (S1975R); source: synthetic peptide) [CaV1.2 Ser1981 peptide S1975R]
5 | 460 | -10.9 | 0.83 | GAGRERDRRRGSTPW (Rad GTPase N-terminal tail, residues 14-28 around Ser25; also called Rad S25 peptide; source: synthetic peptide) [Rad Ser25 peptide]
6 | 126 | -17 | 0.98 | ARRQAGTRRRESLGK (Rad GTPase C-terminal tail, residues 261-275 around Ser272; also called Rad S272 peptide; S272 peptide; source: synthetic peptide) [Rad Ser272 peptide]
